Reference: patent publication US20220098305A1 (Hoffmann-La Roche, published 2022)
Read-outs that look alike come from different tables or passages of the source.

T1: human ICOS (human, UniProt Q9Y6W8 21-199)
T1 construct: The cell that carries it is named under assay; also called huICOS; CD278
T1 sequence: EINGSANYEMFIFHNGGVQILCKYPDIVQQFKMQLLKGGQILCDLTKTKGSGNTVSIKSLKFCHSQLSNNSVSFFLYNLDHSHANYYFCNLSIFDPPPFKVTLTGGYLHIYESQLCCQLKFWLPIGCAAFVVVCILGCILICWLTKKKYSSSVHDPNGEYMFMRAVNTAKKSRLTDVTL

T2: cynomolgus ICOS (cynomolgus, UniProt Q9Y6W8 21-195 (human entry))
T2 chain: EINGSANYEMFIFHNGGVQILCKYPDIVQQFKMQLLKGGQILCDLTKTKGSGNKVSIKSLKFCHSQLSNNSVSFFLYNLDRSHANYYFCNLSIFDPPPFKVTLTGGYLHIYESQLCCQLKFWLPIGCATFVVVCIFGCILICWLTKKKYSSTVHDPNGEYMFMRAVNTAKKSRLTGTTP

T3: murine ICOS (murine, UniProt Q9WVS0 21-200)
T3 sequence: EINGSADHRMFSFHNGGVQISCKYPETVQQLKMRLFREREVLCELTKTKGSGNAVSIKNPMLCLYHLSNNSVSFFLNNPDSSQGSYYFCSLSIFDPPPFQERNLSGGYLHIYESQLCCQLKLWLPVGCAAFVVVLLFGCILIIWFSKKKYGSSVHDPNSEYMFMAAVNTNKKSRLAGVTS


Key:
[1] = molecular target: T4, human FAP (human, UniProt Q12884 1-760); assay: flow cytometry, NIH/3T3-huFAP clone 19 cells
T4 construct: also called hu FAP
Description: (§1) Briefly, suspension cells were harvested, counted, checked for viability and re-suspended at 1 million cells per ml in FACS buffer (PBS with 0.1% BSA). […] The staining was fixed for 20 min at 4° C. in the dark, using 75 μl of 1% PFA in FACS buffer per well.
(§2) Fluorescence was analyzed by FACS using a FACS Fortessa (Software FACS Diva). Binding curves and EC₅₀ values were obtained using GraphPadPrism 7.

[2] = molecular target: T4, human FAP; assay: flow cytometry, NIH/3T3-huFAP clone 19 cells; remark: listed apart in the source
[3] = molecular target: T1, human ICOS; assay: flow cytometry, CHO cells expressing human ICOS
Description: as §1, §2

[4] = molecular target: T5, murine FAP (murine, UniProt P97321 26-761, limits assumed); assay: flow cytometry, cells carrying murine FAP not told
T5 construct: also called mouse FAP

[5] = molecular target: T1, human ICOS; assay: flow cytometry, pre-activated human PBMCs, CD4+ subset
Description: as §1
(§3) Briefly, Peripheral blood mononuclear cells (PBMCs) were prepared by Histopaque (Sigma-Aldrich, Cat No. 10771-500ML Histopaque-1077) density centrifugation of enriched lymphocyte preparations of heparinized blood obtained from a Buffy Coat (“Blutspende Zürich”). The blood was diluted 1:2 with sterile DPBS and layered over Histopaque gradient (Sigma, #H8889). After centrifugation (450×g, 30 minutes, room temperature), the plasma above the PBMC-containing interphase was discarded and PBMCs transferred in a new falcon tube subsequently filled with 50 ml of PBS. The mixture was centrifuged (400×g, 10 minutes, room temperature), the supernatant discarded and the PBMC pellet washed twice with sterile PBS (centrifugation steps 350×g, 10 minutes). The resulting PBMC population was counted automatically (Cedex HiRes) and stored in RPMI1640 medium containing 10% FCS and 1% Glutamax (Gibco 35050061). […] After incubation the PBMCs were used for a subsequent binding experiment, as described above.

[6] = molecular target: T1, human ICOS; assay: flow cytometry, pre-activated human PBMCs, CD8+ subset
Description: as §1, §3

[7] = molecular target: T4, human FAP; assay: flow cytometry on NIH/3T3-huFAP clone 19 cells, MFI on single cells
Description: as §1

[8] = molecular target: T5, murine FAP; assay: flow cytometry, % positive cells; cells bearing murine FAP not given
[9] = molecular target: T2, cynomolgus ICOS; assay: flow cytometry on cynomolgus PBMCs activated 48 h with CD3/CD28 beads, CD4+ subset, MFI
[10] = molecular target: T4, human FAP; assay: flow cytometry on NIH/3T3-huFAP clone 19 cells, AF647-labelled anti-human Fc secondary antibody, MFI
Description: as §1, §2

[11] = molecular target: T3, murine ICOS; assay: flow cytometry, % positive cells; murine ICOS on recombinant CHO cells according to the legend, on pre-activated murine splenocytes according to the example

EC50 [1] | EC50 [2] | EC50 [3] | EC50 [4] | EC50 [5] | EC50 [6] | EC50 (read off the curve) [7] | EC50 (read off the curve) [8] | binding result [9] | EC50 (read off the curve) [10] | binding result [11] | Binder
1.4 nM | 1.54 nM | 41.7 nM | 0.177 nM | ~58 nM | ~124 nM | ~2 nM | ~0.2 nM | binds | ~1 nM | binds | Molecule 10, bispecific monovalent anti-ICOS (1167)/anti-FAP (4B9) huIgG1 P329GLALA kih antibody (1+1) (bispecific antibody, CrossFab (VLCH1/VHCL) on the FAP arm; also called FAP-ICOS (1+1)) heavy 1: EIVLTQSPGTLSLSPGERATLSCRASQSVTSSYLAWYQQKPGQAPRLLINVGSRRATGIPDRFSGSGSGTDFTLTISRLEPEDFAVYYCQQGIMLPPTFGQGTKVEIKSSASTKGPSVFPLAPSSKSTSGGTAALGCLVKDYFPEPVTVSWNSGALTSGVHTFPAVLQSSGLYSLSSVVTVPSSSLGTQTYICNVNHKPSNTKVDKKVEPKSCDKTHTCPPCPAPEAAGGPSVFLFPPKPKDTLMISRTPEVTCVVVDVSHEDPEVKFNWYVDGVEVHNAKTKPREEQYNSTYRVVSVLTVLHQDWLNGKEYKCKVSNKALGAPIEKTISKAKGQPREPQVCTLPPSRDELTKNQVSLSCAVKGFYPSDIAVEWESNGQPENNYKTTPPVLDSDGSFFLVSKLTVDKSRWQQGNVFSCSVMHEALHNHYTQKSLSLSP light 1: EVQLLESGGGLVQPGGSLRLSCAASGFTFSSYAMSWVRQAPGKGLEWVSAIIGSGASTYYADSVKGRFTISRDNSKNTLYLQMNSLRAEDTAVYYCAKGWFGGFNYWGQGTLVTVSSASVAAPSVFIFPPSDEQLKSGTASVVCLLNNFYPREAKVQWKVDNALQSGNSQESVTEQDSKDSTYSLSSTLTLSKADYEKHKVYACEVTHQGLSSPVTKSFNRGEC heavy 2: not shown light 2: DIQMTQSPSSVSASVGDRVTITCRASQGINNFLAWYQQKPGKAPKLLIYDASSLQSGVPSRFAGSGSGTDFTLTISSLQPEDFATYYCQQYNFYPLTFGGGTMVEIKRTVAAPSVFIFPPSDRKLKSGTASVVCLLNNFYPREAKVQWKVDNALQSGNSQESVTEQDSKDSTYSLSSTLTLSKADYEKHKVYACEVTHQGLSSPVTKSFNRGEC
1.15 nM |  | 4.17 nM | 0.413 nM |  |  |  | ~0.4 nM | binds | ~1 nM | binds | Molecule 11, bispecific 1+1 head-to-tail anti-ICOS (1167)/anti-FAP (4B9) huIgG1 P329GLALA kih antibody (bispecific antibody, names and VH/VL of 4B9 are swapped; also called 1+1_HT; FAP-ICOS (HT)) heavy 1: DKTHTCPPCPAPEAAGGPSVFLFPPKPKDTLMISRTPEVTCVVVDVSHEDPEVKFNWYVDGVEVHNAKTKPREEQYNSTYRVVSVLTVLHQDWLNGKEYKCKVSNKALGAPIEKTISKAKGQPREPQVCTLPPSRDELTKNQVSLSCAVKGFYPSDIAVEWESNGQPENNYKTTPPVLDSDGSFFLVSKLTVDKSRWQQGNVFSCSVMHEALHNHYTQKSLSLSPGGGGGSGGGGSGGGGSGGGGSEIVLTQSPGTLSLSPGERATLSCRASQSVTSSYLAWYQQKPGQAPRLLINVGSRRATGIPDRFSGSGSGTDFTLTISRLEPEDFAVYYCQQGIMLPPTFGQGTKVEIK heavy 2: not shown light: DIQMTQSPSSVSASVGDRVTITCRASQGINNFLAWYQQKPGKAPKLLIYDASSLQSGVPSRFAGSGSGTDFTLTISSLQPEDFATYYCQQYNFYPLTFGGGTMVEIKRTVAAPSVFIFPPSDRKLKSGTASVVCLLNNFYPREAKVQWKVDNALQSGNSQESVTEQDSKDSTYSLSSTLTLSKADYEKHKVYACEVTHQGLSSPVTKSFNRGEC
 | 1.82 nM |  |  | ~12.6 nM | ~12.6 nM | ~2 nM |  |  |  |  | Molecule 12, bispecific 2+1 anti-ICOS (1167)/anti-FAP (4B9) Crossfab-IgG P329G LALA (bispecific antibody) heavy 1: EVRLLESGGGLVQPGGSLRLSCAASGFTFNTYAVHWVRQAPGKGLEWVSGIGGSGVRTYYADSVKGRLTISRDNSKNTLYLQMNSLRAEDTAIYFCAKDIYVADFTGYAFDIWGQGTMVTVSSASTKGPSVFPLAPSSKSTSGGTAALGCLVEDYFPEPVTVSWNSGALTSGVHTFPAVLQSSGLYSLSSVVTVPSSSLGTQTYICNVNHKPSNTKVDEKVEPKSCDKTHTCPPCPAPEAAGGPSVFLFPPKPKDTLMISRTPEVTCVVVDVSHEDPEVKFNWYVDGVEVHNAKTKPREEQYNSTYRVVSVLTVLHQDWLNGKEYKCKVSNKALGAPIEKTISKAKGQPREPQVCTLPPSRDELTKNQVSLSCAVKGFYPSDIAVEWESNGQPENNYKTTPPVLDSDGSFFLVSKLTVDKSRWQQGNVFSCSVMHEALHNHYTQKSLSLSP light 1: DIQMTQSPSSVSASVGDRVTITCRASQGINNFLAWYQQKPGKAPKLLIYDASSLQSGVPSRFAGSGSGTDFTLTISSLQPEDFATYYCQQYNFYPLTFGGGTMVEIKRTVAAPSVFIFPPSDRKLKSGTASVVCLLNNFYPREAKVQWKVDNALQSGNSQESVTEQDSKDSTYSLSSTLTLSKADYEKHKVYACEVTHQGLSSPVTKSFNRGEC heavy 2: not shown light 2: EVQLLESGGGLVQPGGSLRLSCAASGFTFSSYAMSWVRQAPGKGLEWVSAIIGSGASTYYADSVKGRFTISRDNSKNTLYLQMNSLRAEDTAVYYCAKGWFGGFNYWGQGTLVTVSSASVAAPSVFIFPPSDEQLKSGTASVVCLLNNFYPREAKVQWKVDNALQSGNSQESVTEQDSKDSTYSLSSTLTLSKADYEKHKVYACEVTHQGLSSPVTKSFNRGEC
